Values joined by “and” are separate entries in the source; they are usually repeats but may differ in a detail not shown here. Equal values may be shown once.
Molecular target: GSK3 binding protein (GBP) on beads (Xenopus)
Assay: pull-down

fold increase in binding with 1 μM CK1ε against buffer- or GSK3-treated extracts: 4 fold and 5 fold
B1: dishevelled (dsh), radiolabeled (natural protein)
chain: MAETKVIYHLDEEETPYLVKVPVPATDIRLRDFKAALGRGHAKYFFKAMDQDFGVVKEEISDDNAKLPCFNDRVVSWLASSEGSQPDSAPPAPATEVRPEPPPPVPPPIPPPPAERTSGIGDSRPPSFHPNVSGSTEQLDQDNESVISMRRDRVRRRESSEQAGVGRGVNGRTERHLSGYESSSTLLTSEIETSICDSEEDDTMSRFSSSTEQSSASRLLKRHRRRRKQRPPRLERTSSFSSVTDSTMSLNIITVTLNMEKYNFLGISIVGQSNERGDGGIYIGSIMKGGAVAADGRIEPGDMLLQVNDINFENMSNDDAVRVLRDIVHKPGPIVLTVAKCWDPSPQGYFTLPRNEPIHPIDPAAWVSHSAALSGSFPVYPGSASMSSMTSSTSVTETELSHALPPVSLFSLSVHTDLASVVKVMASPESGLEVRDRMWLKITIPNAFLGSDVVDWLYHHVEGFQDRREARKFASNLLKAGFIRHTVNKITFSEQCYYIFGDLTGCENYMTNLSLNDNDGSSGASDQDTLAPLPLPGASPWPLLPTFSYQYQAPHPYSTQPPAYHELSSYSYGMGSAGSQHSEGSRSSGSNRSDGGRGMQKDDRSGVAGVGGGDSKSGSGSESEYSTRSSIRRVGGGEAGPPSERSTSSRLPPHHPPSVHSYAAPGVPLSYNPMMLMMMPPPPLPPPGVCPPNSSVPPGAPPLVRDLASVPPELTATRQSFHMAMGNPSEFFVDVM
modifications: [35S]methionine label
